Target: the molecule itself
Test: cryo-EM structure; TRPV5 in lipid nanodiscs (MSP2N2, soy polar lipids), incubated with 400 uM oleoyl-CoA or 400 uM diC8-PI(4,5)P2 for 45 min; 20 mM HEPES pH 8.0, 150 mM NaCl, 2 mM TCEP; C4 symmetry imposed

B1: full-length rabbit TRPV5 (natural protein, UniProt Q9XSM3 1-730, looked up)
chain: MGACPPKAKGPWAQLQKLLISWPVGEQDWEQYRDRVNMLQQERIRDSPLLQAAKENDLRLLKILLLNQSCDFQQRGAVGETALHVAALYDNLEAATLLMEAAPELAKEPALCEPFVGQTALHIAVMNQNLNLVRALLARGASVSARATGAAFRRSPHNLIYYGEHPLSFAACVGSEEIVRLLIEHGADIRAQDSLGNTVLHILILQPNKTFACQMYNLLLSYDEHSDHLQSLELVPNHQGLTPFKLAGVEGNTVMFQHLMQKRKHVQWTCGPLTSTLYDLTEIDSWGEELSFLELVVSSKKREARQILEQTPVKELVSFKWKKYGRPYFCVLASLYILYMICFTTCCIYRPLKLRDDNRTDPRDITILQQKLLQEAYVTHQDNIRLVGELVTVTGAVIILLLEIPDIFRVGASRYFGQTILGGPFHVIIITYASLVLLTMVMRLTNMNGEVVPLSFALVLGWCSVMYFARGFQMLGPFTIMIQKMIFGDLMRFCWLMAVVILGFASAFHITFQTEDPNNLGEFSDYPTALFSTFELFLTIIDGPANYSVDLPFMYCITYAAFAIIATLLMLNLFIAMMGDTHWRVAQERDELWRAQVVATTVMLERKMPRFLWPRSGICGYEYGLGDRWFLRVENHHDQNPLRVLRYVEAFKCSDKEDGQEQLSEKRPSTVESGMLSRASVAFQTPSLSRTTSQSSNSHRGWEILRRNTLGHLNLGLDLGEGDGEEVYHF
notes: TRPV5, rabbit, full length, in a YepM vector; also called Transient receptor potential vanilloid 5; TRPV5_(CoA Open)
- binding result: binds
